# Results: paper PMC9569350, “Antarctic aldehyde dehydrogenase from Flavobacterium PL002 as a potent catalyst for acetaldehyde determination in wine” (Scientific Reports, 2022)
# Columns and labels:
# [1] = test system: CC=O; test: purified protein; conditions: 10 mM NAD+ (saturating), 100 mM potassium phosphate pH 7.5, 25 °C, free enzyme
# [2] = test system: NC(=O)c1ccc[n+]([C@@H]2O[C@H](COP(=O)(O)OP(=O)(O)OC[C@H]3O[C@@H](n4cnc5c(N)ncnc54)[C@H](O)[C@@H]3O)[C@@H](O)[C@H]2O)c1; test: purified protein; conditions: 10 mM acetaldehyde (saturating), 100 mM potassium phosphate pH 7.5, 25 °C, free enzyme, varied: cofactor
substance,measurement,setting,value
S2-ALDH (Flavobacterium sp. PL002),Km,[1],1880 ± 700 µM
same,Vmax,[1],2.64 µmol/min/mg
same,kcat,[1],0.432 ± 0.025 s⁻¹
same,kcat/Km,[1],230 ± 85.2 M⁻¹ s⁻¹
same,Km,[2],2870 ± 480 µM
same,Vmax,[2],0.74 µmol/min/mg
same,kcat,[2],0.121 ± 0.026 s⁻¹
same,kcat/Km,[2],42.2 ± 7.05 M⁻¹ s⁻¹
